For the assay, the target named is T1, GST-Kap122p (S. cerevisiae, UniProt P32767 1-1081).
T1 sequence: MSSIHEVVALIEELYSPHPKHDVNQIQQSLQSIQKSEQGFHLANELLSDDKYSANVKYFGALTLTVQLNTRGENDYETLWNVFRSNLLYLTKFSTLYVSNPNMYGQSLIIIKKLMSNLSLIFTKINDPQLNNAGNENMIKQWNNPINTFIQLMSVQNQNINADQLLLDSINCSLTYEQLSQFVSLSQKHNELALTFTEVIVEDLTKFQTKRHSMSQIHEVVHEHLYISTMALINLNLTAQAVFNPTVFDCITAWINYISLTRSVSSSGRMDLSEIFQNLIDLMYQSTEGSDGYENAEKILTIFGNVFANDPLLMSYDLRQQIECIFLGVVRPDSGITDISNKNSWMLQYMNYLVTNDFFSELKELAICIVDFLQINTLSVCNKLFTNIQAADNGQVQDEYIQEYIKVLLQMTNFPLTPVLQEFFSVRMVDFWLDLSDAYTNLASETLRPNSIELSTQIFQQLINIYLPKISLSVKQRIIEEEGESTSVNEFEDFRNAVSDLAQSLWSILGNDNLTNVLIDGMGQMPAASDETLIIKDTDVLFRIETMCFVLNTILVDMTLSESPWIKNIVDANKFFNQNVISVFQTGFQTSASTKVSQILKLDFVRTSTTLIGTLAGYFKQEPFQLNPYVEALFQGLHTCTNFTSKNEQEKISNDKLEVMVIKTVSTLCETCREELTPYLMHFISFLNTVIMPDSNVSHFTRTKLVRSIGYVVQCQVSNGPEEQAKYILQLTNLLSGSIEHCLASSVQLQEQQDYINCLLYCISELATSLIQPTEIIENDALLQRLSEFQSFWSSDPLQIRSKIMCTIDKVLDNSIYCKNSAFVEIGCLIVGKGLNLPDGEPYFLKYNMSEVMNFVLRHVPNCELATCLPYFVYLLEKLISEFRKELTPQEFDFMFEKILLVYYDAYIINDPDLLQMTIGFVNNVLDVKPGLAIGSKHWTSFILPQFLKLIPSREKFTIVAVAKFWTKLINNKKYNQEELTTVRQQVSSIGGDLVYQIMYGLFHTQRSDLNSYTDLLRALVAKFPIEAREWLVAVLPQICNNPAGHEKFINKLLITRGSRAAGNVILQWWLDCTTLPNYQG
Briefly: pull-down.

B1: His6-Toa1p/Toa2p complex (recombinant TFIIA) (complex)
chain 1: MSNAEASRVYEIIVESVVNEVREDFENAGIDEQTLQDLKNIWQKKLTETKVTTFSWDNQFNEGNINGVQNDLNFNLATPGVNSSEFNIKEENTGNEGLILPNINSNNNIPHSGETNINTNTVEATNNSGATLNTNTSGNTNADVTSQPKIEVKPEIELTINNANITTVENIDDESEKKDDEEKEEDVEKTRKEKEQIEQVKLQAKKEKRSALLDTDEVGSELDDSDDDYLISEGEEDGPDENLMLCLYDKVTRTKARWKCSLKDGVVTINRNDYTFQKAQVEAEWV
chain 2: MAVPGYYELYRRSTIGNSLVDALDTLISDGRIEASLAMRVLETFDKVVAETLKDNTQSKLTVKGNLDTYGFCDDVWTFIVKNCQVTVEDSHRDASQNGSGDSQSVISVDKLRIVACNSKKSE
Regarding B1, the binding result is given as “binds”.

The values above are taken from PMC2174230 (The Journal of Cell Biology, 1999).
